Where a chain is given by its changes, count along the chain named. One block for each binder: values may come before it.
What was measured:
[1] = target: T1, human TIGIT expressed on cells (human, UniProt Q495A1 22-244); assay: cell-based or functional assay
T1 sequence (looked up): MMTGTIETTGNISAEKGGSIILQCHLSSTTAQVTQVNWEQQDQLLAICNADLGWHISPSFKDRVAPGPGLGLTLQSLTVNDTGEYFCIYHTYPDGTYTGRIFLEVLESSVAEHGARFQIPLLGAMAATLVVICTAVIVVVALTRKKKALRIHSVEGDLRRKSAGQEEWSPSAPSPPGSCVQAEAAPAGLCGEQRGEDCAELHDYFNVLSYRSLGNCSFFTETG

[2] = target: T1, human TIGIT expressed on cells; assay: cell-based or functional assay; remark: listed apart in the source
Human TIGIT-Fc = target: T2, Human TIGIT-Fc (human, UniProt Q495A1 22-141); assay: ForteBio BLI, IgG KD, avid
T2 construct: bought (Creative Biomart); also called TIGIT-Fc antigen; TIGIT-Fc fusion antigen; not shown: Fc part
T2 sequence (looked up): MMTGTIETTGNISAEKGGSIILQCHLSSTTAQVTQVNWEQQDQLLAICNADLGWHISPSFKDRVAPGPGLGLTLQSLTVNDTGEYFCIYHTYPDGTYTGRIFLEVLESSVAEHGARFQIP
Protocol: Briefly, ForteBio affinity measurements were performed by loading IgGs on-line onto AHQ sensors. Sensors were equilibrated off-line in assay buffer for 30 min and then monitored on-line for 60 seconds for baseline establishment. Sensors with loaded IgGs were exposed to 100 nM antigen (human TIGIT-Fc, human TIGIT-His or cyno TIGIT-Fc) for 5 minutes, afterwards they were transferred to assay buffer for 5 min for off-rate measurement. Kinetics were analyzed using the 1:1 binding model.

[3] = target: T1, human TIGIT expressed on cells; assay: flow cytometry on Jurkat-hTIGIT, FIG. 9
Protocol: (§1) Antibodies were incubated with the cells for 20 min at 4° C. in FACS buffer. […] Geometric mean fluorecence intensity was analysed using LSR BD Fortessa. Cell binding was recorded as the median florescence intensity of PE on the transfected line compared to the un-transfected line for each antibody (Table 3).

Human TIGIT-His [4] = target: T3, Human TIGIT-His (human, UniProt Q495A1 22-141, biotinylated in the ForteBio Fab assay); assay: Biacore, IgG captured, TIGIT-His in solution
T3 construct: bought (Creative Biomart); also called Biotinylated Human TIGIT HIS; TIGIT-His monomer; not shown: His tag
T3 sequence (looked up): T2 sequence (looked up)
Protocol: (§2) Biosensor analysis was conducted at 25° C. in a HBS-EP buffer system (10 mM HEPES pH 7.3, 150 mM NaCl, 3 mM EDTA, 0.05% Surfactant P20) using a Biacore 8K optical biosensor docked with a CMS sensor chip (GE Healthcare, Marlboro, Mass.). The sample hotel was maintained at 8° C. […] This surface type provided a format for reproducibly capturing fresh analysis antibody after each regeneration step. Flow cell 2 was used to analyze captured antibody (60-90 RU) while flow cell 1 was used as a reference flow cell. […] Each of the antigen sample concentrations were run as a single replicate. Two blank (buffer) injections also were run and used to assess and subtract system artefacts. The association (300 s) and dissociation (600 s) phases for all antigen concentrations were performed at a flow rate of 30 uL/min. The surface was regenerated with three sequential injections (15 s, 15 s and 60 s) of 10 mM glycine, pH 1.5 at a flow rate of 30 uL/min. The data was aligned, double referenced, and fit to a 1:1 binding model using Biacore 8K Evaluation Software, version 1.0.

[5] = target: T4, cynomolgus TIGIT on primary CD8+ T cells (Macaca fascicularis (cynomolgus), UniProt A0A7N9I9V4 89-312); assay: flow cytometry, cynomolgus CD69+CD8+ T cells, FIG. 11
T4 construct: whole, on cells
T4 sequence (A0A7N9I9V4 entry or part of it): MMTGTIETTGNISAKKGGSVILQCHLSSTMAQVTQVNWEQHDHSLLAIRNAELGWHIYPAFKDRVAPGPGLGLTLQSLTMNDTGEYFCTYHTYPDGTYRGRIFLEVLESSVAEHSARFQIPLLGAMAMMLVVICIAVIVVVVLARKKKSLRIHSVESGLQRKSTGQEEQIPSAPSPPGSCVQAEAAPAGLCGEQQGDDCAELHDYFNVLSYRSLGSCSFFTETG
Protocol: Isolated PBMCs from Macaca fascicularis were obtained from BioPRIM. Cells were thawed and stimulated using the T cell activation/expansion kit for non-human primate (Miltenyi Biotec) at 1:2 (bead:cell ratio) following the manufacturer's specifications. The next day, cells were collected, counted and distributed at 5×10^4 cells per well. […] Then, cells were washed and incubated with the following antibodies and LVD mix for data illustrated in FIGS. 11A and 11B: anti-CD4-PercP-Cy5.5 (clone A161A1, BioLegend 357414); anti-CD8-BV510 (clone SK1, BD Bioscience 563919), CD69-APC-Cy7 (Clone FN50, BioLegend, 310914) and LVD efluor 520 (eBioscience 65-0867-14). Stained cells were analysed by FACS using BD LSR Fortessa. The EC50 value of binding was calculated using the % of positive TIGIT stained cells gated on LVD-CD69+CD8+ T cells.

Human TIGIT-His [6] = target: T3, Human TIGIT-His; assay: Biacore 8K, IgG on CM5 chip, human TIGIT-HIS in solution
Protocol: as §2

Human TIGIT-His [7] = target: T3, Human TIGIT-His; assay: MSD-SET, monovalent (Fab or mAb titrated, not said which)
Protocol: (§3) Briefly, solution equilibrium titrations (SET) were performed in PBS+0.1% IgG-Free BSA (PBSF) with antigen (TIGIT-His monomer) held constant at 10-100 pM and incubated with 3- to 5-fold serial dilutions of Fab or mAbs starting at 10 pM-10 nM. Antibodies (20 nM in PBS) were coated onto standard bind MSD-ECL plates overnight at 4° C. or at room temperature for 30 min. Plates were then blocked by BSA for 30 min with shaking at 700 rpm, followed by three washes with wash buffer (PBSF+0.05% Tween 20). SET samples were applied and incubated on the plates for 150s with shaking at 700 rpm followed by one wash. Antigen captured on a plate was detected with 250 ng/mL sulfotag-labeled streptavidin in PBSF by incubation on the plate for 3 min. The plates were washed three times with wash buffer and then read on the MSD Sector Imager 2400 instrument using 1× Read Buffer T with surfactant. The percent free antigen was plotted as a function of titrated antibody in Prism and fit to a quadratic equation to extract the KD. To improve throughput, liquid handling robots were used throughout MSD-SET experiments, including SET sample preparation.

[8] = target: T1, human TIGIT expressed on cells; assay: flow cytometry, 100 nM Ab, Jurkat-hTIGIT vs untransfected
Protocol: as §1

[9] = target: T5, mouse TIGIT expressed on cells (mouse, UniProt P86176 29-249); assay: flow cytometry, 100 nM Ab, Jurkat-mTIGIT vs untransfected
T5 construct: whole, on cells; on Jurkat cells engineered to express mouse TIGIT; also called mTIGIT; Jurkat-mTIGIT
T5 sequence (looked up): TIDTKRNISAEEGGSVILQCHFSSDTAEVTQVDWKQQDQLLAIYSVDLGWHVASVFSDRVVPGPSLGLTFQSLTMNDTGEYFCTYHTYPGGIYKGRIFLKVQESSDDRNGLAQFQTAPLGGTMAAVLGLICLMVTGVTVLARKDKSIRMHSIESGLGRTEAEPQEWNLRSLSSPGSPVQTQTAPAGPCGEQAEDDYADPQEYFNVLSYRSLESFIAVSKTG
Protocol: as §1

Human TIGIT-His [10] = target: T3, Human TIGIT-His; assay: MSD-SET, monovalent (Fab or mAb titrated, not said which); remark: listed apart in the source
Protocol: as §3

[11] = target: T1, human TIGIT expressed on cells; assay: flow cytometry, competition with CD155-His (5 ug/ml) on Jurkat-hTIGIT
[12] = target: T1, human TIGIT expressed on cells; assay: flow cytometry, total human primary CD8+ T cells, % TIGIT stained cells, FIG. 10A

B2: anti-TIGIT antibody clone 29523 (IgG) (antibody, V domains shown)
VH: EVQLVESGGGVVQPGRSLRLSCAASGFTFGSYYMHWVRQAPGKGLEWVAVIWPDGSNKLYADSVKGRFTISRDNSKNTLYLQMNSLRAEDTALYYCAKPVPKSRALDVWGQGTMVTVSS
VL: DIQLTQSPSSVSASVGDRVTITCRASQGISSWLAWYQQKPGKAPKLLIYGASSLQSGVPSRFSGSGSGTDFTLTISSLQPEDFATYYCQQAFYLPWTFGGGTKVEIK
- Induction over Isotype control (fold change), luciferase, Jurkat-hTIGIT + CHO-TCR-CD155, 133 nM [2]: 2.4 fold
- Kd (Human TIGIT-Fc): 0.531 nM
- Kd (Human TIGIT-His [7]): 1.7 nM
- FON (Fold Over Negative) [8]: 150 fold
- FON (Fold Over Negative) [9]: 502 fold
- Kd (Human TIGIT-His [10]): 1.7 nM
- IC50 [11]: 0.079 nM

B4: anti-TIGIT antibody clone 29494 (IgG) (antibody, V domains shown)
VH: QVQLQESGPGLVKPSETLSLTCTVSGGSISSGSYYLAWIRQPPGKGLEWIGSIFRSGSTYYNPSLESRVTISVDTSKNQFSLKLSSVTAADTAVYYCAIEGANFKDFGYVAFDIWGQGTMVTVSS
VL: EIVMTQSPATLSVSPGERATLSCRASQSVSSNLAWYQQKPGQAPRLLIYGASTRATGIPARFSGSGSGTEFTLTISSLQSEDFAVYYCQQSPPWPRTFGGGTKVEIK
- EC50 for increase in IFNg secretion by human primary CD8 T cells, FIG. 13B [1]: 6.1 nM
- EC50 of Jurkat-hTIGIT cell activation (luciferase), FIG. 12B [1]: 4.4 nM
- increase of IFNg secretion over isotype control, human primary CD8+ T cells + CHO-TCR-CD155 [1]: 5.8 fold
- Induction over Isotype control (fold change), luciferase, Jurkat-hTIGIT + CHO-TCR-CD155, 133 nM [2]: 3.42 fold
- Kd (Human TIGIT-Fc): 0.376 nM
- EC50 [3]: 0.07 nM
- Kd (Human TIGIT-His [4]): 0.27 nM
- Kd (Human TIGIT-His [6]): 0.27 nM
- Kd (Human TIGIT-His [7]): 0.07 nM
- FON (Fold Over Negative) [8]: 164 fold
- FON (Fold Over Negative) [9]: 511 fold
- Kd (Human TIGIT-His [10]): 0.07 nM
- IC50 [11]: 0.07 nM

B6: anti-TIGIT antibody clone 29499 (IgG) (antibody, V domains shown)
VH: B4 VH with V2L, G32S, S33R, L36W, F54G, R55T, E66K, A90T, K105R
VL: B4 VL
- increase of IFNg secretion over isotype control, human primary CD8+ T cells + CHO-TCR-CD155 [1]: 5.2 fold
- Induction over Isotype control (fold change), luciferase, Jurkat-hTIGIT + CHO-TCR-CD155, 133 nM [2]: 3.68 fold
- Kd (Human TIGIT-Fc): 0.319 nM
- Kd (Human TIGIT-His [7]): 0.019 nM
- FON (Fold Over Negative) [8]: 164 fold
- FON (Fold Over Negative) [9]: 541 fold
- Kd (Human TIGIT-His [10]): 0.019 nM
- IC50 [11]: 0.103 nM

Next, values leading:

- EC50 for increase in IFNg secretion by human primary CD8 T cells, FIG. 13B [1]: 11.1 nM
- EC50 of Jurkat-hTIGIT cell activation (luciferase), FIG. 12B [1]: 2.3 nM
- increase of IFNg secretion over isotype control, human primary CD8+ T cells + CHO-TCR-CD155 [1]: 5.4 fold
- Induction over Isotype control (fold change), luciferase, Jurkat-hTIGIT + CHO-TCR-CD155, 133 nM [2]: 2.52 fold
- Kd (Human TIGIT-Fc): 0.384 nM
- EC50 [3]: 0.119 nM
- Kd (Human TIGIT-His [4]): 0.716 nM
- EC50 [5]: 1.73 nM
- Kd (Human TIGIT-His [6]): 0.716 nM
- Kd (Human TIGIT-His [7]): 0.21 nM
- FON (Fold Over Negative) [8]: 166 fold
- FON (Fold Over Negative) [9]: 535 fold
- Kd (Human TIGIT-His [10]): 0.21 nM
- IC50 [11]: 0.102 nM
- EC50 [12]: 0.181 nM
B1: anti-TIGIT antibody clone 29520 (IgG) (antibody, V domains shown)
VH: QVQLVESGGGLVQPGRSLRLSCAASGFTFRDYAMHWVRQAPGKGLEWVSGITWNSGLIGYADSVKGRFTISRDNAKNSLYLQMNSLRAEDTALYYCAKPVPRLRGLDVWGQGTMVTVSS
VL: B2 VL

- EC50 for increase in IFNg secretion by human primary CD8 T cells, FIG. 13B [1]: 5.1 nM
- EC50 of Jurkat-hTIGIT cell activation (luciferase), FIG. 12B [1]: 32 nM
- increase of IFNg secretion over isotype control, human primary CD8+ T cells + CHO-TCR-CD155 [1]: 4.5 fold
- Induction over Isotype control (fold change), luciferase, Jurkat-hTIGIT + CHO-TCR-CD155, 133 nM [2]: 2.96 fold
- Kd (Human TIGIT-Fc): 0.35 nM
- EC50 [3]: 0.05 nM
- EC50 [5]: 0.378 nM
- Kd (Human TIGIT-His [6]): 1.2 nM
- Kd (Human TIGIT-His [7]): 0.64 nM
- FON (Fold Over Negative) [8]: 142 fold
- FON (Fold Over Negative) [9]: 414 fold
- Kd (Human TIGIT-His [10]): 0.64 nM
- IC50 [11]: 0.078 nM
- EC50 [12]: 0.253 nM
B3: anti-TIGIT antibody clone 29527 (IgG) (antibody, V domains shown)
VH: B2 VH with E1Q, G30S, Y32S, W52G, P53A, L59Y, K65E, K102R, S103R, A105G
VL: B2 VL

- Kd (Human TIGIT-His [4]): 0.192 nM
- Kd (Human TIGIT-His [6]): 0.192 nM
B5: anti-TIGIT antibody clone 31288 (IgG) (antibody, V domains shown)
VH: B4 VH with V2L, M120T
VL: B4 VL
notes: human IgG

- increase of IFNg secretion over isotype control, human primary CD8+ T cells + CHO-TCR-CD155 [1]: 3.2 fold
- Induction over Isotype control (fold change), luciferase, Jurkat-hTIGIT + CHO-TCR-CD155, 133 nM [2]: 3.26 fold
- Kd (Human TIGIT-Fc): 0.392 nM
- Kd (Human TIGIT-His [7]): 0.025 nM
- FON (Fold Over Negative) [8]: 156 fold
- FON (Fold Over Negative) [9]: 406 fold
- Kd (Human TIGIT-His [10]): 0.025 nM
- IC50 [11]: 0.094 nM
B7: anti-TIGIT antibody clone 29513 (IgG) (antibody, V domains shown)
VH: QVQLVQSGAEVKKPGSSVKVSCKASGGTFQNYAISWVRQAPGQGLEWMGVIVPIFGTANYAQKFQGRVTVTADESTSTAYMELSSLRSEDTAVYYCARLHLGQKAYYGMDVWGQGTTVTVSS
VL: DIQMTQSPSSLSASVGDRVTITCRASQSISSYLNWYQQKPGKAPKLLIYAASSLQSGVPSRFSGSGSGTDFTLTISSLQPEDFATYYCQQRYVFPPTFGGGTKVEIK
